Laboratory results reported in doi:10.1101/134072.
“And” between values parts separate entries of the source, which are not always exact repeats. Identical values can stand only once.

Key:
[1] = target: T1, TDP-43 N-terminal domain (TDP-43^NTD), residues 1-80, no tags, Q13148; assay: AUC; details: remark: other sources report otherwise
T1 chain: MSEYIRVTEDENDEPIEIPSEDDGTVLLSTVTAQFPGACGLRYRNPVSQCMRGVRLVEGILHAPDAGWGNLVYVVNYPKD

[2] = target: T1, TDP-43 N-terminal domain (TDP-43^NTD), …; assay: SEC; details: remark: other sources report otherwise

B1: TDP-43 N-terminal domain (TDP-43^NTD), residues 1-80, no tags, Q13148 1-80 (domain or fragment)
chain: T1 chain
**Q.** Which percent dimer at 2-5 μM [1] does the source give for B1 here?
**A.** 30%

**Q.** What about the percent tetramer at 20 μM [1] of the same binder?
**A.** 10%

**Q.** What about the stoichiometry N [1] of the same binder?
**A.** 2 and 4

**Q.** And the stoichiometry N [2]?
**A.** 2 and 4
